Data as given in US20090175784A1.

Key:
[1] = biological target: human αVβ3/5 integrins on human tumor cells (A375.S2, MDA-MB-231, A2780, HT29, A549) (human) (UniProt P06756); assay: cell-based or functional assay; set-up: IC50 of doxorubicin, integrin targeted liposome-entrapped dox 90:1, murine melanoma B16-F10 cells (negative control): unit not given beside the values
[2] = biological target: murine αVβ3/5 integrin (murine melanoma cell line B16F10, negative control) (murine) (UniProt P43406); assay: cell-based or functional assay; set-up: IC50 of doxorubicin, integrin targeted liposome-entrapped dox 90:1, murine melanoma B16-F10 cells (negative control): unit not given beside the values
Chain of murine αVβ3/5 integrin (murine melanoma cell line B16F10, negative control) (murine) (P43406 31-1044, form in doubt, chain 1 of 3): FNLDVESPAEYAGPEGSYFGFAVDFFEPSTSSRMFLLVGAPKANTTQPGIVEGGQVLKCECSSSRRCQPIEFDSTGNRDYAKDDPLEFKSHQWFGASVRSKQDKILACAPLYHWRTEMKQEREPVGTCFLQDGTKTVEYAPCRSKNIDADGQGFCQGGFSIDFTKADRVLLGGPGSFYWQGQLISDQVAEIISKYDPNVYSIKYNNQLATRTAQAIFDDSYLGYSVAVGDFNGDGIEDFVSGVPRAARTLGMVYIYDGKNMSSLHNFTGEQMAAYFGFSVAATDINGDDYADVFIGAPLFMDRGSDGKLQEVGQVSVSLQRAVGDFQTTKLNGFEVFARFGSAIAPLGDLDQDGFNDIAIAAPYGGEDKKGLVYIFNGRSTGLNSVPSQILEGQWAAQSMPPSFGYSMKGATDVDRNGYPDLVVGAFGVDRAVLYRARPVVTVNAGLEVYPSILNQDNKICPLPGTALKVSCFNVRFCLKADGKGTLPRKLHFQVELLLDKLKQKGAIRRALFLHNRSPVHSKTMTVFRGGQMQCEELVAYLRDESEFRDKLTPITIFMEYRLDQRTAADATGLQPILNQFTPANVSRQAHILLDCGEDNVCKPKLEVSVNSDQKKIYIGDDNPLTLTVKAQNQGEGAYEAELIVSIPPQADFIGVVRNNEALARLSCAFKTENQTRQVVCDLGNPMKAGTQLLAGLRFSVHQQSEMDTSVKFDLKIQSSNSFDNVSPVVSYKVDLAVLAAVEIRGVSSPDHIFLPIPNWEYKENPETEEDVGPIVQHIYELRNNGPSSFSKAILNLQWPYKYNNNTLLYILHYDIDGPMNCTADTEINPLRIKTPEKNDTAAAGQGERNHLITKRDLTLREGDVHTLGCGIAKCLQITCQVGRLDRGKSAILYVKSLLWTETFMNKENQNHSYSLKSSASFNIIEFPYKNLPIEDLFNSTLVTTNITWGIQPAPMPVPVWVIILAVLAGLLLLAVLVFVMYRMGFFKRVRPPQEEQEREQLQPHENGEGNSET
Chain of murine αVβ3/5 integrin (murine melanoma cell line B16F10, negative control) (murine) (O54890 26-787, form in doubt, chain 2 of 3, further chain): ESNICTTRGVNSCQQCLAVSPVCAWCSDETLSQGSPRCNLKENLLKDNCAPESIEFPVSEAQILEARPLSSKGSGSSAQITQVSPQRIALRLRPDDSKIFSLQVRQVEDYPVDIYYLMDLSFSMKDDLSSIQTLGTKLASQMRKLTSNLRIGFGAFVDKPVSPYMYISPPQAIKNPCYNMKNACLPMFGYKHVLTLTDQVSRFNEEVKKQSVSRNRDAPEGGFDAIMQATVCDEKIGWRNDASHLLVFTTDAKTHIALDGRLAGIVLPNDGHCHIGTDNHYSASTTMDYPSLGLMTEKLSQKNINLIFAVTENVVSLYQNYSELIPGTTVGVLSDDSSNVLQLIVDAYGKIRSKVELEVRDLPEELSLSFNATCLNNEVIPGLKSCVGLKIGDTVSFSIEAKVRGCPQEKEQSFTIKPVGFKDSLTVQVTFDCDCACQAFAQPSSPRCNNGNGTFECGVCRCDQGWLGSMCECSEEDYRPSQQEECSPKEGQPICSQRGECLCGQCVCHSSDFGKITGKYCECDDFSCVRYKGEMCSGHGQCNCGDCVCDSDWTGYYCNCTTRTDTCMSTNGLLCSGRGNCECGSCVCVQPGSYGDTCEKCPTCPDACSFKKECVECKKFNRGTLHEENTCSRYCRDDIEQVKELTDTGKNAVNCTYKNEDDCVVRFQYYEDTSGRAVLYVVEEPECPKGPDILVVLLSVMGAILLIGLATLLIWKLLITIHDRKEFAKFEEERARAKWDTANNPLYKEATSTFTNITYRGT
Chain of murine αVβ3/5 integrin (murine melanoma cell line B16F10, negative control) (murine) (O70309 24-798, form in doubt, chain 3 of 3, further chain): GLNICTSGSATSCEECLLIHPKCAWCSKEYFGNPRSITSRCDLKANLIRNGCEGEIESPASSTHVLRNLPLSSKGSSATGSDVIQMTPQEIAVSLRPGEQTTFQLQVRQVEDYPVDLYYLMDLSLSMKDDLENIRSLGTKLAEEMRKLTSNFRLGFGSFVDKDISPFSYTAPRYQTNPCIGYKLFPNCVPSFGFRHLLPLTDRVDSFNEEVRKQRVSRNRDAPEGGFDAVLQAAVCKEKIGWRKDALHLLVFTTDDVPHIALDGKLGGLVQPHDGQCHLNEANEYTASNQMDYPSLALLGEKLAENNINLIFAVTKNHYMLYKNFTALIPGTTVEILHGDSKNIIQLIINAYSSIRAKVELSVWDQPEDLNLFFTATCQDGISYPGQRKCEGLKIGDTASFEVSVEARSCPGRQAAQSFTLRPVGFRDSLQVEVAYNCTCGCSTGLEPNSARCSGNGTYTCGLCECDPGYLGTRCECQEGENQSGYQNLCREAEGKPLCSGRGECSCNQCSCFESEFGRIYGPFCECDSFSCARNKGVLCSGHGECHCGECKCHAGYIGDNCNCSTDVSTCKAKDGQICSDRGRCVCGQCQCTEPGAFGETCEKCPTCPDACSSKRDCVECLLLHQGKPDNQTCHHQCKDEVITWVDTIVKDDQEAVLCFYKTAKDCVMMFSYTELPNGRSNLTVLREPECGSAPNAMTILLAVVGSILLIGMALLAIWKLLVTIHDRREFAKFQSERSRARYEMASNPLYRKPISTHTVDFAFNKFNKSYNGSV

Substance: CNTO95 Fab′ (from pepsin F(ab′)2, reduced and reoxidized) conjugated to MalPEG-DSPE on the surface of liposomes
- Increase (ratio of IC50 of liposome-entrapped dox to IC50 of integrin-targeted 90:1), breast cancer MDA-MB-231 cells [1]: 5 fold
- Increase (ratio of IC50 of liposome-entrapped dox to IC50 of integrin-targeted 90:1), colon cancer HT29 cells [1]: 1.1 fold
- Increase (ratio of IC50 of liposome-entrapped dox to IC50 of integrin-targeted 90:1), lung cancer A549 cells [1]: 1 fold
- Increase (ratio of IC50 of liposome-entrapped dox to IC50 of integrin-targeted 90:1), melanoma A375.S2 cells [1]: 29 fold
- Increase (ratio of IC50 of liposome-entrapped dox to IC50 of integrin-targeted 90:1), ovarian cancer A2780 cells [1]: 29 fold
- IC50 of doxorubicin, integrin targeted liposome-entrapped dox 90:1, murine melanoma B16-F10 cells (negative control) [2]: > 200
- Increase (ratio of IC50 of liposome-entrapped dox to IC50 of integrin-targeted 90:1), murine melanoma B16-F10 cells (negative control) [2]: 1 fold
